Results reported in patent publication US9364412B2, “Electrostatically controlled hydrogels” (University of Utah Research Foundation, priority 2005, dated 2016).
Where no end group is shown, it is not given here.

Tests used:
[1] = Solubility of peptide in buffer (observation); format: physicochemical
[2] = Salt-induced gelation (NaCl added to peptide solution); format: physicochemical; conditions: for final NaCl concentration for salt-induced gelation: peptides dialyzed in 30 mM buffer, pH 6.0
Experimental: For pH-induced gelation, dialyzed peptide solutions in vials were exposed to vapors of acetic acid (acid-induced gelation) or ammonium hydroxide (base-induced gelation). […] For salt-induced gelation, saturated sodium chloride solution was added into the dialyzed stock peptide solution so that the final peptide concentration in the hydrogel was 1 wt %. For mixing-induced gelation, dialyzed peptide solutions were mixed at 1:1 weight ratio such that the final total peptide concentration was 1 wt %.
The salt concentration necessary to induce gelation was quite high as indicated by FIG. 2. All peptides were dialyzed in 30 mM buffer and needed a much higher concentration to trigger hydrogelation.

[3] = target: T1, SEQ ID NO 1, Acetyl-EWEVEVEVEV-amide (negatively charged module); experiment: mixing-induced co-assembly into hydrogel, dynamic rheometry
T1 construct: Synthetic designed decapeptide; also called Acetyl-EW(EV)4-amide; negatively-charged peptide module
T1 peptide: Ac-EWEVEVEVEV-NH2

[4] = target: T2, SEQ ID NO 9, Acetyl-EWEAEAEAEA-amide (negatively charged module); experiment: small-angle X-ray scattering of the mixed peptide pair
T2 construct: also called EAW10
T2 peptide: Ac-EWEAEAEAEA-NH2
Experimental: (§1) A small-angle x-ray scattering instrument was used for measurements at 25° C. This instrument has a slit geometry and all analyses were corrected for this. The angular dependence of the scattering of x-rays from particles in a solvent has the form:
(§2) Transmission electron microscopic (TEM) images of all hydrogels show the formation of fibrous network (FIG. 20). However, the drying step involved in the sample preparation for TEM might cause peptide fibers to aggregate further, giving rise to very heterogeneous samples that were difficult to characterize accurately in terms of fiber thickness, estimated very approximately as ~30 nm (diameter). Therefore, small angle X-ray scattering (SAXS) was used to probe the hydrated fibrous network with minimal perturbations to the samples. The measured scattering intensity (I(Q)) increased over time for each of the biomaterials, indicative of the formation of aggregates and consistent with a growing fibril networks (FIG. 18). […] The trend of the gelation kinetics is evident in FIG. 18, and also in the summary of the structural parameters that can be determined using P(r) analysis (Table 4). The kinetics of the formation of these structures is distinctive among the peptide pairs, with the SEQ ID NO 10:SEQ ID NO 11 pair reaching equilibrium most rapidly (between 15 min and 1 h) and the SEQ ID NO 9:SEQ ID NO 8 pair taking more than 11 hours before its small-angle scattering pattern becomes evident. The overall gelation kinetics monitored by SAXS follows a clear order of SEQ ID NO 10:SEQ ID NO 11>SEQ ID NO 9:SEQ ID NO 11>SEQ ID NO 10:SEQ ID NO 8>SEQ ID NO 9:SEQ ID NO 8. The order of gelation kinetics can be directly correlated to the total electrostatic and hydrophobic interactions among the oligopeptide pairs, which is highest for the SEQ ID NO 10:SEQ ID NO 11 pair and least for the SEQ ID NO 9:SEQ ID NO 8 pair. Among the two unequal chain length pairs, kinetics of SEQ ID NO 9:SEQ ID NO 11 (13 charged and 12 apolar amino acids) was faster than SEQ ID NO 10:SEQ ID NO 8 (12 charged and 13 apolar amino acids).

[5] = target: T3, SEQ ID NO 10, Acetyl-WEAEAEAEAEAEAEA-amide (negatively charged module); experiment: as above
T3 construct: Synthetic designed 15-mer
T3 peptide: Ac-WEAEAEAEAEAEAEA-NH2
Experimental: as §1, §2

SEQ ID NO 5 = target: T4, SEQ ID NO 5; experiment: mixing-induced co-assembly into hydrogel, dynamic rheometry
T4 construct: All peptides were made on Rink Amide resin; also called member of the serine pair
T4 peptide: EWESESESES-NH2

Ac-WKVKVKVKVK-NH2 [SEQ ID NO 3, Acetyl-WKVKVKVKVK-amide]
solubility at pH 7 [1]: did not appear to be high enough

Acetyl-EWEVEVEVEV-amide (Ac-EWEVEVEVEV-NH2) [SEQ ID NO 1, negatively charged peptide module]
state of sample at 1.5 M NaCl ([2]; 1.5 M salt concentration): still a viscous solution | final NaCl concentration for salt-induced gelation [2]: 3 M

Acetyl-KWKVKVKVKVKVKVK-amide (Ac-KWKVKVKVKVKVKVK-NH2) [SEQ ID NO 2, positively charged peptide module]
final NaCl concentration for salt-induced gelation [2]: 1.5 M

B1: SEQ ID NO 3, Acetyl-WKVKVKVKVK-amide (positively charged module) (peptide)
peptide: Ac-WKVKVKVKVK-NH2
notes: Synthetic designed decapeptide; also called Acetyl-WK(VK)4-amide; positively-charged peptide module
binding result [3]: binds

B2: SEQ ID NO 11, Acetyl-KWKAKAKAKAKAKAK-amide (positively charged module) (peptide)
peptide: Ac-KWKAKAKAKAKAKAK-NH2
notes: Synthetic designed 15-mer
binding result [4]: binds | binding result [5]: binds

B3: SEQ ID NO 8, Acetyl-WKAKAKAKAK-amide (positively charged module) (peptide)
peptide: Ac-WKAKAKAKAK-NH2
notes: also called KAW10
binding result [4]: binds | binding result [5]: binds

B4: SEQ ID NO 2, Acetyl-KWKVKVKVKVKVKVK-amide (positively charged module) (peptide)
peptide: Ac-KWKVKVKVKVKVKVK-NH2
notes: Synthetic designed 15-mer
binding result [3]: binds

B5: SEQ ID NO 4 (peptide)
peptide: WKSKSKSKSK-NH2
notes: All peptides were made on Rink Amide resin; also called member of the serine pair
binding result (SEQ ID NO 5): binds
